# Test results from US8986682B2, “Method to increase the absorption of unsaturated fatty acids by human infants” (Swedish Orphan Biovitrum AB (publ), priority 2010, dated 2015).
# Read-outs that look alike come from different tables or passages of the source.
# B1: BSSL-MAM: native human milk bile-salt-stimulated lipase (protein, UniProt P19835 21-753, looked up)
# Bile salt-activated lipase: AKLGAVYTEGGFVEGVNKKLGLLGDSVDIFKGIPFAAPTKALENPQPHPGWQGTLKAKNFKKRCLQATITQDSTYGDEDCLYLNIWVPQGRKQVSRDLPVMIWIYGGAFLMGSGHGANFLNNYLYDGEEIATRGNVIVVTFNYRVGPLGFLSTGDANLPGNYGLRDQHMAIAWVKRNIAAFGGDPNNITLFGESAGGASVSLQTLSPYNKGLIRRAISQSGVALSPWVIQKNPLFWAKKVAEKVGCPVGDAARMAQCLKVTDPRALTLAYKVPLAGLEYPMLHYVGFVPVIDGDFIPADPINLYANAADIDYIAGTNNMDGHIFASIDMPAINKGNKKVTEEDFYKLVSEFTITKGLRGAKTTFDVYTESWAQDPSQENKKKTVVDFETDVLFLVPTEIALAQHRANAKSAKTYAYLFSHPSRMPVYPKWVGADHADDIQYVFGKPFATPTGYRPQDRTVSKAMIAYWTNFAKTGDPNMGDSAVPTHWEPYTTENSGYLEITKKMGSSSMKRSLRTNFLRYWTLTYLALPTVTDQEATPVPPTGDSEATPVPPTGDSETAPVPPTGDSGAPPVPPTGDSGAPPVPPTGDSGAPPVPPTGDSGAPPVPPTGDSGAPPVPPTGDSGAPPVPPTGDSGAPPVPPTGDSGAPPVPPTGDAGPPPVPPTGDSGAPPVPPTGDSGAPPVTPTGDSETAPVPPTGDSGAPPVPPTGDSEAAPVPPTDDSKEAQMPAVIRF
# B2: rhBSSL-OVI: recombinant human BSSL produced in / isolated from the milk of transgenic sheep (protein, UniProt P19835 21-753, looked up)
# Bile salt-activated lipase: B1 Bile salt-activated lipase
# modifications: produced in transgenic sheep milk
# Legend:
# [1] = system: patients; settings: cited from earlier work
# [2] = Specific activity with PNPB substrate, sodium cholate as bile-salt activator; type: biochemical; settings: 20 mM sodium cholate activation solution, 27° C., after HA-HPLC and SE-HPLC purification
# Experimental: Differences in functional properties are observed between rhBSSL-CHO and BSSL-MAM and from rhBSSL-OVI. The specific activity of rhBSSL-CHO is observed to be higher than that of the other forms of BSSL. The specific activities of BSSL-MAM and rhBSSL-OVI are only 80% of that of rhBSSL-CHO based on mass. Each sample is specifically purified by HA-HPLC and SE-HPLC before determination of specific activity. Specific activity is determined using 4-nitrophenyl ester butyric acid (PNPB) as a substrate for BSSL, and detection of the release of 4-nitrophenol. Briefly, a dilution series of rhBSSL (for example, from 20 to 160 ng activity/mL) is prepared in PBS with 0.1% BSA. 200 μl of these rhBSSL solutions is added to 25 μl of an activation solution containing 20 mM sodium cholate (as bile-salt activator) in PBS with 0.1% BSA. These solutions are preincubated in a spectrophotometer at 27° C. for 5 minutes. Just before measuring, 25 μl of a well-mixed substrate solution containing 5 mM PNPB in PBS-Tween is added. The formation of 4-nitrophenol can be detected by its absorbance at 400 nm and the increase in absorbance is measured during 90 seconds. The active amount of BSSL is determined using a standard curve of an rhBSSL reference standard.
# [3] = system: kittens; settings: 0.1 mg/mL in kitten-formula mixed with cow milk, 5 days; cited from earlier work
# [4] = system: CF patients (aged 12 to 39 years) with PI; settings: single dosing of 0.2 g or 1 g as complement to 25% of regular Creon dosing; cited from earlier work
molecule,measurement,setting,value
agalsidase beta: recombinant human alpha-galactosidase A produced in CHO cells,Patients with presence of IgG,[1]; treated patients,almost all patients
agalsidase alfa: recombinant human alpha-galactosidase A produced in a continuous line of human fibroblasts,Patients with presence of IgG,[1]; in vivo,55%
B1,"Specific activity relative to that of rhBSSL-CHO, based on mass",[2],80%
same,Growth rate versus kittens fed formula alone,[3],twice
B2,"Specific activity relative to that of rhBSSL-CHO, based on mass",[2],80%
same,Lipid uptake versus Creon alone,[4],more rapid and efficient lipid uptake
